Test results taken from patent EP2308896A1 (Sanofi-Aventis, dated 2011).

Target: hRAGE (human, UniProt Q15109 23-342, limits assumed)
Test: competition ELISA, hRAGE-S100B interaction

hRAGE, sequence (Q15109 23-342 limits assumed): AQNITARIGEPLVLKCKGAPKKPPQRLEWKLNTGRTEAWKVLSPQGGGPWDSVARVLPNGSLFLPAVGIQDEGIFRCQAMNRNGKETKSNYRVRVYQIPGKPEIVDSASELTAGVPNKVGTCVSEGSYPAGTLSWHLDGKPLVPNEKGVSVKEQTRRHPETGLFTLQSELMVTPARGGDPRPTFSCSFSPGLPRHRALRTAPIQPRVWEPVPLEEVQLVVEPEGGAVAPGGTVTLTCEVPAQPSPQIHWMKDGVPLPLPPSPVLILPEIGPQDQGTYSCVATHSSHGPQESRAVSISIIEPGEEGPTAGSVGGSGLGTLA

B1: 158 RAGE-1 (antibody, V domains shown)
VH: QIQLVQSGPELKKPGETVKISCKASGYTFTDYSMHWVKQAPGKGLKWMGWINTETGEPTYADDFKGRFAFSLETSASTAYLLINNLKTEDTATYFCARDYLYYYAMDYWGQGTSVTVSS
VL: DVVLTQTPLSLPVNIGDQASISCKSTKSLLNSDGFTYLDWYLQKPGQSPQLLIYLVSNRFSGVPDRFSGSGSGTDFTLKISRVEAEDLGVYYCFQSNYLPLTFGGGTKVEIK
notes: Anti-RAGE monoclonal antibody (hybridoma; captured by anti-mouse Fc in Biacore); also called LP08105
IC50: 0.72 nM
